From patent publication US20100168033A1, “UNACYLATED GHRELIN AS THERAPEUTIC AGENT IN THE TREATMENT OF METABOLIC DISORDERS” (ALIZE PHARMA SAS, priority 2007, published 2010)
No end group written: not given here.

B1: unacylated ghrelin UAG (1-28) (peptide)
peptide: GSSFLSPEHQRVQQRKESKKPPAKLQPR
B2: UAG (6-13) (peptide)
peptide: SPEHQRVQ
modifications: not fully specified

Tests used:
[1] = biological target: UAG receptor on INS-1E pancreatic β cells (rat); assay: competition with [125I-Tyr4]-UAG on INS-1E β-cell membranes, mean±SEM of three experiments
[2] = biological target: UAG receptor on HIT-T15 pancreatic β cells (hamster); assay: competition with [125I-Tyr4]-UAG on HIT-T15 β-cell membranes, mean±SEM of three experiments

IC50 [1] [nM]	IC50 [2] [nM]	Binder
2	2.6	B1
2.4	3.8	B2
